Consider ten molecules from patent publication US9315862B2, “Aptamer regulated nucleic acids and uses thereof” (California Institute of Technology, priority 2004, dated 2016).

In data set [1] the test system is target mRNA encoding green fluorescent protein (GFP). Nature of the data set: Protein expression assay: in vivo GFP regulation activity of antiswitches in yeast cells. It is filed as cell-based, S. cerevisiae. The note with it: for theophylline concentration at which the antiswitch switches GFP expression (inhibits expression / decreases to background levels): theophylline concentration in the media, s8 is an "on" switch; for switching theophylline concentration compared with s1-4: modified lower-affinity theophylline aptamer. As for the experimental part:
(§1) Yeast cells were inoculated into synthetic complete media supplemented with the appropriate drop out solution and sugar source (2% raffinose, 1% sucrose) and grown overnight at 30° C. Cells were back diluted into fresh media to an OD600 of 0.1 and grown at 30° C. For assaying antiswitch activity, this fresh media contained appropriate concentrations of theophylline (Sigma), caffeine (Sigma), tetracycline (Sigma), or water (negative control) and expression was induced to a final concentration of 2% galactose, or an equivalent volume of water was added (noninduced control). After growing for three hours, the GFP and Venus levels were assayed on a Safire (Tecan) fluorescent plate reader set to the appropriate excitation (GFP-485 nm; Venus-515 nm) and emission (GFP-515 nm; Venus-[…]) wavelengths. For assaying the antiswitch temporal response, cells were back diluted into fresh media containing 2% galactose. After growing in inducing media for three hours, theophylline or water was added and fluorescence was monitored over time. Fluorescence was normalized for cell number by dividing relative fluorescence units (RFUs) by the OD600 of the culture.
The expression of antiswitches in S. cerevisiae was accomplished using a novel non-coding RNA (ncRNA) expression construct similar to a previously described system (Taira et al., Nucleic Acids Res 19, 5125-30 (1991)) (see FIG. 6). Briefly, the RNA to be expressed is cloned between two hammerhead ribozymes known to self-cleave in vivo (Samarsky et al., Proc Natl Acad Sci USA 96, 6609-14 (1999)). This dual hammerhead construct can be placed under the control of Pol II promoters, and when transcribed the flanking hammerhead ribozymes cleave out from the desired RNA at an efficiency greater than 99% (see FIG. 11). The construct enables creation of ncRNAs with defined 5′ and 3′ ends that are free of potentially interfering flanking sequences. Antiswitch s1 was expressed in this construct under control of a galactose-inducible (GAL1) promoter in yeast cells. A plasmid containing a yeast enhanced GFP (yEGFP) (Mateus et al., Yeast 16, 1313-23 (2000)) under the control of a GAL1 promoter was transformed into the same cells (FIG. 1a).

The subject of data set [2] is theophylline aptamer. The following applies: cited from earlier work.
Data set [3] concerns E. coli membrane. The following applies: cited from earlier work.
Data set [4] relates to yellow fluorescent variant protein (Venus) mRNA target. Nature of the data set: Protein expression assay: in vivo Venus (YFP) regulation by antiswitches in yeast cells. It is filed as cell-based, S. cerevisiae. The method, then:
as §1
To illustrate this we introduced into cells two switches each responsive to a different effector molecule and each regulating the protein expression of a different mRNA target: s1, a theophylline responsive GFP regulator, and s9 (see FIG. 9), a tetracycline responsive yellow fluorescent variant protein (Venus) (Nagai et al., Nat Biotechnol 20, 87-90 (2002)) regulator (FIG. 5a). Changes in the targeting capabilities of these molecules were made by swapping out the antisense stem and switching aptamer stem while keeping the remainder of the aptamer module the same. Concurrent expression of these two antiswitches with a plasmid carrying both GFP and Venus allowed for an assay of the simultaneous regulation of gene expression by modular antiswitch design. […] Furthermore, the addition of both ligands decreased expression of both GFP and Venus. […]

For data set [5], the system named is GFP mRNA. Kind of data set: RNA quantification by qRT-PCR of antiswitch s1 and target mRNA. The class given is cell-based, S. cerevisiae. The method, then: Yeast cells were grown according to methods detailed in protein expression assays. Total RNA was extracted using standard acid phenol extraction procedures (Caponigro et al., Mol Cell Biol 13, 5141-8 (1993)). Briefly, cells were pelleted and frozen in liquid nitrogen. Pellets were resuspended in a 50 mM NaOAc (pH 5.2) and 10 mM EDTA buffer. Cells were lysed by the addition of SDS to a final concentration of 1.6% and equal volume of acid phenol. Solutions were kept at 65° C. with intermittent vortexing for 10 minutes. Following cooling on ice, the aqueous phase was extracted and further extraction was carried out with an equal volume of chloroform. RNA samples were ethanol precipitated and resuspended in water. Total RNA was quantified by OD260 readings. RNA samples were DNased (Invitrogen) according to manufacturer's instructions. cDNA was synthesized using gene-specific primers (see FIG. 13) and Superscript III reverse transciptase (Invitrogen) according to the manufacturer's instructions. qRT-PCR was performed on this cDNA using an iCycler iQ system (BioRAD). Samples were prepared using the iQ SYBR green supermix and primer pairs specific for different templates (see FIG. 13) on dilution series of the cDNA, according to the manufacturer's instructions. Data was analyzed using the iCycler iQ software.
(In qPCR the cycle at which signal appears reflects the starting amount.)

Data set [6] can be described thus: Structural probing of antiswitch by nuclease mapping (RNase T1) with theophylline alone. The method, then:
Antiswitch and target sequences were PCR amplified with primers containing a T7 polymerase promoter. RNA was transcribed using Ampliscribe T7 transcription kits (Epicentre) according to manufacture's instructions, except that transcription was carried out at 42° C. and for gel-shift assays antiswitches were radiolabeled by the addition of [α-^32P]-UTP to the transcription mix. The RNA was purified on a 15% denaturing gel, eluted, ethanol precipitated, and resuspended in water. RNA was quantified by OD260 readings. For nuclease mapping, antiswitches were 5′ end labeled with fluorescein (Molecular Probes) by incubating 25 μg of RNA with phosphate reactive label, dissolved in DMSO (Sigma), in labeling buffer (0.12 M methylimidazole pH 9.0, 0.16 M EDAC) for four hours, according to manufacturer's instructions. Labeled RNA was purified by ethanol precipitation and run on a 12% denaturing gel. Fluorescent bands were excised from the gel, eluted into water for three hours at 37° C., and ethanol precipitated.
For nuclease mapping, fluorescein-labeled antiswitch RNA was resuspended in buffer (50 mM Tris-HCl pH 8.0, 100 mM NaCl, 5 mM MgCl2), denatured at 65° C. for three minutes, and allowed to slow cool to room temperature. Antiswitch RNA was incubated with varying concentrations of theophylline at room temperature for 15 minutes. RNase T1 (Ambion) was added to the antiswitch-ligand mixture and incubated at room temperature for 15 minutes. Cleavage products were visualized using laser-induced fluorescence capillary electrophoresis on a P/ACE MDQ machine (Beckman) using a single-stranded nucleic acid analysis kit (Beckman) according to manufacturer's instructions.

Setting [7] is: cells with s1 and s9, plasmid carrying both GFP and Venus.
The mark [8] stands for this setting: theophylline and tetracycline, cells with s1 and s9.

As a reminder, the Kd is the concentration at which binding is half-saturated.

With “s8: redesigned "on" antiswitch regulator responsive to theophylline, SEQ ID NO: 8 (ACCUUUAGACAUUUAGAUACCAGCAUCGUCUUGAUGCCCUUGGCAGCUAAAUGUC; RNA, backbone not given here)”, the “theophylline concentration at which the antiswitch switches GFP expression (inhibits expression / decreases to background levels)” value in data set [1] was “around 1 mM”.
For the molecule `Cn1c(=O)c2c(ncn2C)n(C)c1=O` [caffeine], the “binding to the theophylline aptamer” value in data set [2] is “does not bind”.
Turning to `Cn1c(=O)c2[nH]cnc2n(C)c1=O` [theophylline], the Kd in data set [2] was 290 nM. In addition, in data set [3], the “drop in theophylline concentration across the E. coli membrane” value is > 1,000 fold.

B1: s5: antiswitch with aptamer domain having 10-fold lower affinity to theophylline than s1, SEQ ID NO: 5 (nucleic acid)
chain: ACCUUUAGACAUUUACCUCUAAAUGUCUAAAGGUGAUACCACGCGAAAGCGCCUUGGCAGCACCUUUAG
modifications: RNA, backbone not given here
For the molecule B1, in data set [1], the “theophylline concentration required to switch, relative to s1” value is approximately 10 fold and the “switching theophylline concentration compared with s1-4” value was “higher theophylline concentrations”. Moreover, in data set [2], the “Kd of aptamer domain for theophylline relative to the aptamer used in s1 (higher Kd / lower affinity)” value was approximately 10 fold.

B2: s6: destabilized modified theophylline aptamer antiswitch based on s5, SEQ ID NO: 6 (nucleic acid)
chain: ACCUUUAGACAUUUACCUCUACAUGUCUAAAGGUGAUACCACGCGAAAGCGCCUUGGCAGCACCUUUAG
modifications: RNA, backbone not given here
For B2, the “switching theophylline concentration compared with s1-4” value in data set [1] is “higher theophylline concentrations”.

B3: s1: theophylline-responsive "off" antiswitch RNA targeting GFP mRNA, SEQ ID NO: 1 (nucleic acid)
chain: ACCUUUAGACAUUUACCUCUAAAUGUCUAAAGGUGAUACCAGCAUCGUCUUGAUGCCCUUGGCAGCACCUUUAG
modifications: chemistry not given here
Take B3: the “GFP expression on addition of caffeine” value in data set [1] (caffeine as negative control effector) is “does not change expression levels”. Further, the “GFP expression on addition of theophylline” value in data set [1] (setting [7]) was “decreased”. The “GFP expression on addition of both ligands” value in data set [1] (setting [8]) is recorded as “decreased”. Moreover, the “Venus expression on addition of theophylline” value in data set [4] (setting [7]) is listed as “unaffected”. In data set [5] (cells harboring s1, absence versus high levels of theophylline), the “relative levels of target transcript” value was “did not change significantly”. Further, in data set [5] (same promoter for antiswitch and target), the “steady-state relative level of antiswitch versus target levels” value is on record as “approximately 1,000 fold”. In data set [6] (2 mM theophylline), the “antisense domain (peak 1) RNase T1 cleavage” value was “appearance of peak 1” and the “switching aptamer stem (peak 2) RNase T1 cleavage” value was “absent”. Moreover, the “switching aptamer stem (peak 2) RNase T1 cleavage” value in data set [6] (absence of theophylline and 200 μM theophylline) is “cleaved”.

B4: s2: destabilized antiswitch construct based on s1 (A21 to C), SEQ ID NO: 2 (nucleic acid)
chain: ACCUUUAGACAUUUACCUCUACAUGUCUAAAGGUGAUACCAGCAUCGUCUUGAUGCCCUUGGCAGCACCUUUAG
modifications: RNA, backbone not given here
For B4, the “theophylline concentration at which the antiswitch switches GFP expression (inhibits expression / decreases to background levels)” value in data set [1] was “greater than 0.2 mM”.

B5: s4: destabilized antiswitch construct with altered loop sequence (U18 to C), SEQ ID NO: 4 (nucleic acid)
chain: ACCUUUAGACAUUUACCCCUACAUGUCUAAAGGUGAUACCAGCAUCGUCUUGAUGCCCUUGGCAGCACCUUUAG
modifications: RNA, backbone not given here
Regarding B5, in data set [1], the “theophylline concentration at which the antiswitch switches GFP expression (inhibits expression / decreases to background levels)” value is 0.1 mM.

B6: s9: tetracycline-responsive Venus (YFP) regulator antiswitch, SEQ ID NO: 9 (nucleic acid)
chain: UUGCUCACCAUGGUCCUCACCAUGGUGAGCAAAAAACAUACCAGAUCGCCACCCGCGCUUUAAUCUGGAGAGGUGAAGAAUACGACCACCUUUGCUCAC
modifications: chemistry not given here
As to B6, the “GFP expression on addition of tetracycline” value in data set [1] (setting [7]) is given as “not affecting”. The “Venus expression on addition of tetracycline” value in data set [4] (setting [7]) is recorded as “decreased”. Further, the “Venus expression on addition of both ligands” value in data set [4] (setting [8]) is recorded as “decreased”.

B7: s3: stabilized antiswitch construct, antisense stem five nucleotides longer than s1, SEQ ID NO: 3 (nucleic acid)
chain: ACCUUUAGACAUUUAAUUAACCUCUUAAUUAAAUGUCUAAAGGUGAAGAUACCAGCAUCGUCUUGAUGCCCUUGGCAGCUUCACCUUUAG
modifications: RNA, backbone not given here
Turning to B7, in data set [1], the “theophylline concentration required to switch, relative to s1” value is on record as “roughly 1.5 fold”; the “theophylline concentration required to switch, relative to s2” value was approximately 6 fold; the “theophylline concentration at which the antiswitch switches GFP expression (inhibits expression / decreases to background levels)” value is “approximately 1.25 mM”. For the same molecule, the “decrease (inhibition) of GFP expression from control/full expression levels in the "off" state” value in data set [1] (absence of theophylline) stood at 10%.
